Legend:
[1] = target: T1, XMPP (XMPP-HAStrep; SDTL1) (Arabidopsis thaliana, UniProt F4ISS8); experiment: inhibition of XMP hydrolysis (phosphate assay); type: biochemical; conditions: 10 μM XMP as substrate; 22 °C
T1 construct: gene At2g32150; monomer
T1 sequence (F4ISS8 1-263): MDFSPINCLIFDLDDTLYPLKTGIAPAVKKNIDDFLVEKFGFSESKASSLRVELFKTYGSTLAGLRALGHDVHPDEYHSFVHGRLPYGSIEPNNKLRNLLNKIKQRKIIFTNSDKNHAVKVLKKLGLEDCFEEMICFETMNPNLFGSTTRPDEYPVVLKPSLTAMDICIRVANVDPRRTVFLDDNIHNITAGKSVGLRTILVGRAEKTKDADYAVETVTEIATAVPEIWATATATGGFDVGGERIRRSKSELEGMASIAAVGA

[2] = target: T2, XMPP (C-terminal His-tagged full-length XMPP) (Arabidopsis thaliana, UniProt F4ISS8); experiment: EnzChek phosphate assay (MESG / purine nucleoside phosphorylase), initial rates; type: biochemical; conditions: 30 °C, pH 7.5 (50 mM Tris), 1.25 mM MgCl2
T2 construct: gene At2g32150; full-length (13 residues beyond Ser250), C-terminal His tag, expressed in E. coli, HisTrap purified; monomer
T2 sequence (F4ISS8 1-263): T1 sequence (F4ISS8 1-263)

[3] = target: T2, XMPP (C-terminal His-tagged full-length XMPP); experiment: as above; type: biochemical; conditions: 30 °C, pH 7.5 (50 mM Tris), 1.25 mM MgCl2; remark: listed apart in the source
purified protein = substrate: O=c1[nH]c(=O)c2ncn([C@@H]3O[C@H](COP(=O)(O)O)[C@@H](O)[C@H]3O)c2[nH]1; experiment: purified protein; type: biochemical, Arabidopsis thaliana; conditions: 22 °C
[4] = substrate: O=c1[nH]c(=O)c2ncn([C@@H]3O[C@H](COP(=O)(O)O)[C@@H](O)[C@H]3O)c2[nH]1; experiment: EnzChek phosphate assay (MESG / purine nucleoside phosphorylase), initial rates; type: biochemical, Arabidopsis thaliana; conditions: 30 °C, pH 7.5 (50 mM Tris), 1.25 mM MgCl2
Method: EnzChek phosphate assay (MESG / purine nucleoside phosphorylase), initial rates on XMPP (C-terminal His-tagged full-length XMPP) | enzymatic activities and kinetic constants of XMPP variants were determined

`O=c1[nH]c(=O)c2ncn([C@@H]3O[C@H](CO)[C@@H](O)[C@H]3O)c2[nH]1` [xanthosine] was tested, and the inhibition [1] was “For XMPP, we confirmed an inhibition by xanthosine”.

With `O=c1[nH]c(=O)c2ncn([C@@H]3O[C@H](COP(=O)(O)O)[C@@H](O)[C@H]3O)c2[nH]1` [XMP] the KM [2] was “direct and indirect hydrogen bonds to Thr61, Lys29, and Arg51” and the KM [3] was “hydrophobic residues Val28, Ile31, and Phe55 that shape the xanthine-binding pocket”.

B1: XMPP (XMPP-HAStrep; SDTL1) (Arabidopsis thaliana) (protein)
chain: T1 sequence (F4ISS8 1-263)
notes: monomer
In the case of B1, the Km (purified protein) is reported as 3.9 ± 0.2 µM and the kcat (purified protein) is reported as 9.2 ± 0.1 s⁻¹.

B2: XMPP (C-terminal His-tagged full-length XMPP) (Arabidopsis thaliana) (protein)
chain: T1 sequence (F4ISS8 1-263)
notes: full-length (13 residues beyond Ser250), C-terminal His tag, expressed in E. coli, HisTrap purified; monomer
For B2, the Km [4] was 8.1(0.8) μM and the kcat [4] was 16.5(0.33) s^-1.
